# Source: the RNAGym collection of RNA variant scans (doi:10.1073/pnas.2313332121)
# B1: TPR t1 (parent)
# chain: GACCAAUCUGCCCUCAGAGCUCGAGAACAUCUUCGGAUGCAGAGGAGGCAGGCUUCGGUGGCGCGAUAGCGCCAACGUCCUCAACCUCCAAUGCAUCCCACCACAUGAUGAUGCCUGAAGAGCCUUGGUUUUUUG
# Variants of: B1
# Assay: polymerase ribozyme fitness, log enrichment relative to wild type (log ratio); higher = more active; in vitro selection for triplet polymerase activity
# How it was run: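 Genotype fitness is the logarithm of its enrichment divided by wild-type enrichment, using inverse-variance-weighted averages of replicates. That logarithm is base 2. Enrichment was measured by Illumina sequencing of input and output libraries from one triplicate in vitro selection round, with frozen incubation at −7 °C, on PCR-built, transcribed mutant libraries of each subunit of a heterodimeric triplet polymerase ribozyme, retaining genotypes with ≥10 input reads and ≥1 read per output.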
row,Variant,polymerase ribozyme fitness (log ratio)
1,G110A U125A,-2.43
2,G120C C123A,0.937
3,G120C C123G,0.469
4,A111G A121C,0.741
5,C114G G120U,-3.34
6,U112G A121U,0.924
7,G110U A118G,-1.01
8,C114G G128A U130A,-5.53
9,C115A A118U U131A,-1.85
10,G110C G113A,-6.42
11,G113A U132C,-1.76
12,G113C C123A,-2.82
13,U112A C123G,0.872
14,U112A C123U,1.03
15,G120C G127A U134C,-2.55
16,G117A G135C,-1.41
17,G117A G135U,-1.92
18,U116A U130C,-2.68
19,A119U G128C,-2.46
20,U112A C124U,1.1
21,G120C G128U,-0.74

row,Variant,polymerase ribozyme fitness (log ratio)
1,U112C C124U G128U,-0.524
2,G117A U125G,-1.64
3,C115A A118G,-0.852
4,C114G G117A G135U,-6.72
5,U116G G117A,-1.82
6,G113C C115A,-4.21
7,G110A U133A,-1.59
8,G122U C124U,0.953
9,G122U C124G,-0.864
10,G122U C124A,1.69
11,G113A G120C,-1.02
12,A111U G113A U130G,-5.85
13,G110A G113C,-4.78
14,C114A U133G,-1.84
15,U116C G120U,0.377
16,G120A G122A G128C,-2.03
17,A111U A121C U126A U130G,-2.89
18,C115A G122U U132C,-0.273
19,G117U C123G,-1.56
20,G117U C123A,-2.17
21,G110C G127U,-2.52

row,Variant,polymerase ribozyme fitness (log ratio)
1,G120A C124U,1.89
2,A111C U129G,-0.988
3,A121G U132A,1.94
4,C115U G117C,-3.48
5,C115U G122U,-1.31
6,U112A G128U U131C,1.17
7,G113C U116G,-3.72
8,G113C U116A,-4.45
9,U112A C114G,-0.0146
10,G110C G135C,-4.01
11,G122A G128U G135U,-2.49
12,G113C U116G U130G,-5.3
13,A121G U131G,1.36
14,A121G U131A,2.42
15,G110U G120A,-2.47
16,C115U C124U,-1.17
17,G113U U131C,-3.4
18,U112G U130C,0.265
19,G113A U116A,-4.71
20,C114U U133G,-0.517
21,G113A C123G U129A,-1.16

row,Variant,polymerase ribozyme fitness (log ratio)
1,G110C C114U,-4.33
2,U112A A119C,-1.25
3,C114U G117C U133A,-5.74
4,G117C A118C,-3.06
5,G117C A118G,-3.04
6,A121G U129C,0.0991
7,U116C G135A,-0.82
8,C114U G127U,-3.69
9,U112C C124U,1.58
10,A121C G128U,0.545
11,U112G C115A U126G,-2.63
12,G110A U116G,-3.5
13,G110U C115A U129C,-3.17
14,A118U U130G,-0.458
15,G113U G120C,-1.71
16,A121U C123A C124G,2.17
17,A111U A121U U129A G135C,-2.04
18,A111C C114A,-2.98
19,G117A U133G,-0.981
20,C123G G128C,-0.446
